Reference: patent publication US20230036481A1

Key:
[1] = molecular target: tagged human CD19 recombinant protein (human) (UniProt P15391); assay: flow cytometry; transduced oNK cells stained with tagged CD19 recombinant protein and fluorescent anti-Myc antibody, after sorting
[2] = molecular target: tagged human CD19 recombinant protein (human) (UniProt P15391); assay: flow cytometry; transduced oNK cells stained with tagged CD19 recombinant protein and fluorescent anti-Myc antibody, before enrichment
[3] = molecular target: CD19 on Raji-Luc cells (CD19+ B cell lymphoma cell line) (human) (UniProt P15391); assay: cell-based or functional assay

- double positive of fluorescent signal of expressed Myc tag and bound human CD19 recombinant protein (% of cells) [1]: 82.3%
- double positive of fluorescent signal of expressed Myc tag and bound human CD19 recombinant protein (% of cells) [2]: 9.06%
Substance: anti-CD19 chimeric antigen receptor (CAR) expressed on oNK cells (CAR19-oNK)
- percentage of cytotoxicity (luciferase luminescence), E:T 0.2:1, 1 hour [3]: 13.9%
- percentage of cytotoxicity (luciferase luminescence), E:T 0.5:1, 1 hour [3]: 45.9%
- percentage of cytotoxicity (luciferase luminescence), E:T 1:1, 1 hour [3]: 64.1%
- percentage of cytotoxicity (luciferase luminescence), E:T 2:1, 1 hour [3]: 80%
- percentage of cytotoxicity (luciferase luminescence), E:T 5:1, 1 hour [3]: 91.4%
